Residue numbers refer to the chain shown, from its start. Numbers in names are those of the source. Where “and” joins values, the source holds several entries; their conditions need not be identical. Equal entries are not always repeated. Entries after “also recorded” stand apart in the source; their conditions may differ. Where two headings read alike, the source gives them in different places.
Tests used:
fibronectin = fibronectin (Homo sapiens, UniProt P02751); details: Note 1, cited from earlier work
fibronectin, sequence (P02751 32-2477, species assumed): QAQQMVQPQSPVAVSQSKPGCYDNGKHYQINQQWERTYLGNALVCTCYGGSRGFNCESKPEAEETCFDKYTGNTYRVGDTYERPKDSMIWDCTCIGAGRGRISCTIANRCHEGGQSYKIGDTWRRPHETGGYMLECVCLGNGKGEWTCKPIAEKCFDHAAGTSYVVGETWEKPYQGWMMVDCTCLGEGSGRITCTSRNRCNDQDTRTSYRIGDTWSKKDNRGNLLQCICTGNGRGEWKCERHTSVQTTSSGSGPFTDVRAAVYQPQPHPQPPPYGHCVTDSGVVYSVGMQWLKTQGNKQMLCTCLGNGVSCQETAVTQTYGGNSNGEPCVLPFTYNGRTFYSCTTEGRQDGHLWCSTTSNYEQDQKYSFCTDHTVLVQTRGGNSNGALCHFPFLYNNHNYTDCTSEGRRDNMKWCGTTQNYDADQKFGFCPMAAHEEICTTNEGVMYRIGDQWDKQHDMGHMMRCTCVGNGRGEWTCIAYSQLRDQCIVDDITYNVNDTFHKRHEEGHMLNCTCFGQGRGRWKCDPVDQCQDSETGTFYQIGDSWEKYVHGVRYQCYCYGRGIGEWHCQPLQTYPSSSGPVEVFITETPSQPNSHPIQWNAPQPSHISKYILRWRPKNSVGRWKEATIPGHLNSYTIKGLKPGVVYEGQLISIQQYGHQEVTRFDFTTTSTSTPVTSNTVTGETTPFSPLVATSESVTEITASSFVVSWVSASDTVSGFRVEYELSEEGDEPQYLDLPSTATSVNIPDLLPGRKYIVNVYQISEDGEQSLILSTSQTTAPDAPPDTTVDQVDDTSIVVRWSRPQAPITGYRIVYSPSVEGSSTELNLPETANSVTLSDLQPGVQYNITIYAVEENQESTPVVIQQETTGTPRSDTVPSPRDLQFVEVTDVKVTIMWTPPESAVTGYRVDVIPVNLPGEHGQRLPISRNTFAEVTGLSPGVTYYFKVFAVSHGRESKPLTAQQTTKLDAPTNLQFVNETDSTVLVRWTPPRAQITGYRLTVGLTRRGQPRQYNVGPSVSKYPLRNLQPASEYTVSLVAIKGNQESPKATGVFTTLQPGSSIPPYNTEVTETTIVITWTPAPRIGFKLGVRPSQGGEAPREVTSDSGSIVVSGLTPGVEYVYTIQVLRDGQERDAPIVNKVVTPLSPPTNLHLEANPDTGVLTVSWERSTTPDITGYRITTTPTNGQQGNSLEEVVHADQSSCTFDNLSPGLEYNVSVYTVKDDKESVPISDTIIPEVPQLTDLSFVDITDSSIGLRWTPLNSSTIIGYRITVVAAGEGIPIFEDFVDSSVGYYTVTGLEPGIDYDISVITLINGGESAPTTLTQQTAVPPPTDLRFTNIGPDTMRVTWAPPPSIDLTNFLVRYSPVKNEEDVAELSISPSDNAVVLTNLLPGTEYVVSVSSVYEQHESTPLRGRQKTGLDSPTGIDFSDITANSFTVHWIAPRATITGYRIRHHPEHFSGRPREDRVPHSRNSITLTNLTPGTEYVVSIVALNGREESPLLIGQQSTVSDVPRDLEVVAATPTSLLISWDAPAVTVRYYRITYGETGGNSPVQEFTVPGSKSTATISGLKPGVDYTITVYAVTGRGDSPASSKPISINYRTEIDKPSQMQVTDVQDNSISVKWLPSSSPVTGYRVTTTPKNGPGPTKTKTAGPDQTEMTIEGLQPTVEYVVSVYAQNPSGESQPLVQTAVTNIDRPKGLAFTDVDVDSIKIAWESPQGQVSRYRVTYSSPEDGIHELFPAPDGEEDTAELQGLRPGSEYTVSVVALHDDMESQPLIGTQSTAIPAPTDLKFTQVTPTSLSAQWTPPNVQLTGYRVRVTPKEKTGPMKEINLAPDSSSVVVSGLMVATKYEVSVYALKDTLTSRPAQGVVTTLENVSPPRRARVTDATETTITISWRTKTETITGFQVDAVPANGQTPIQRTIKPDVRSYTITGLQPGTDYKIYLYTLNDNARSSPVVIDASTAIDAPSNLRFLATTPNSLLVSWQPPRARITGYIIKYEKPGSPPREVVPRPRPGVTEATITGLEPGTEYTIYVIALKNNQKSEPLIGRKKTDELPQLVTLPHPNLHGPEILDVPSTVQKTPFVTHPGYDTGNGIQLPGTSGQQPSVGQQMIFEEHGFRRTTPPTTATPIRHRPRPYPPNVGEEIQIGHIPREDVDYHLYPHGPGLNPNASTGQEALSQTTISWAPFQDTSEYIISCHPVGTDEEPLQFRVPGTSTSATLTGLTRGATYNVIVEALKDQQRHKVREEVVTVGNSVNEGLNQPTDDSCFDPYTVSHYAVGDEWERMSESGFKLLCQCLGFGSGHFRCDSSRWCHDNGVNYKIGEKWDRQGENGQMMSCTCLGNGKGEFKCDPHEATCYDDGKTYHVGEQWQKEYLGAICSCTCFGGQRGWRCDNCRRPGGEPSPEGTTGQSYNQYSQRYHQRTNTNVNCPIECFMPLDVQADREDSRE

HEK-Blue™ IL-2 cells = assay: HEK-Blue IL2 reporter assay (SEAP, OD630); assay type: cell-based; details: Table 5C
Experimental: Recombinant MMP9 and/or MMP2 (R&D Systems) was first activated with p-aminophenylmercuric acetate and this activated protease or equivalent amount of activating solution without the protease was used to digest or mock digest the fusion protein for 1 hr, 2 hr, 4 hr and overnight (18-22 hr) at 37 C. Cleavage assays are set up in TCNB buffer: 50 mM Tris, 10 mM CaCl2), 150 mM NaCl, 0.05% Brij-35 (w/v), pH 7.5. Digested protein was aliquoted and stored at −80° C. prior to testing. Aliquots of digests were subsequently analyzed by SDS-PAGE followed by Western blotting to evaluate the extent of cleavage. Digests were also assessed in functional assays such as CTLL-2 proliferation and HEK-Blue Interleukin reporter assays. As shown in FIGS. 2A-E, essentially complete cleavage by MMP9 protease of the fusion proteins with functional site is seen after overnight incubation. In contrast, proteins containing a scrambled MMP cleavage site are not cut (FIG. 2E). HEK-Blue™ IL-2 cells are specifically designed to monitor the activation of the JAK-STAT pathway induced by IL-2. Indeed, stimulation with human or murine IL-2 triggers the JAK/STAT5 pathway and induces secreted embryonic alkaline phosphatase (SEAP) production. SEAP can be readily monitored when using QUANTI-Blue™, a SEAP detection medium. These cells respond to human and murine IL-2. For the HEK Blue assay, untreated and digested samples are titrated and added to 50 000 HEK Blue cells per well in 200 ul medium in a 96-well plate and incubated at 37C in 5% CO2 for 20-24 hr. The following day, levels of SEAP are measured by adding 20 uL of cell supernatant to QuantiBlue reagent, followed by 1-3 h incubation at 37C and reading absorbance at 630 nm. FIGS. 3C-J, 3Q-Y and Table 5B-5C show results obtained from IL2 fusion proteins tested in HEK Blue IL2 assay.

heparin = assay: IL-2 fusion protein plate binding assay to Heparin-BSA conjugate
Experimental: 96-well plates were coated with 25 ug/mL of Heparin-BSA conjugate (provided by Dr. Mueller, Boerhinger Ingelheim) or control BSA for 18-22 h at room temperature on shaker (350 rpm). After washing, wells are blocked with PBS-0.05% Tween 20/1% BSA for 90 min, then fusion proteins are titrated in 1% BSA/PBS-0.05% Tween 20 pH 7.5 and/or pH 6 and added for 2 hr at room temperature with shaking. After washing, an anti-mouse IL-2 biotin-labelled detection antibody (JES6-5H4, ThermoFisher) is added and binding is detected using Ultra Strepavidin HIRP (ThermoFisher). The plate was developed by adding the chromogenic tetramethylbenzidine substrate (Ultra TMB, ThermoFisher). The reaction is stopped by addition of 0.5M H2SO4 and the absorbance is read at 450-650 nm.

[1] = Drug and IL-2 levels in B16F10 tumor lysates by ELISA; assay type: in vivo, mice; details: for IL-2 levels in treated tumors compared to Construct B treated tumors: free IL-2 calculated by subtraction, 24 h after last dose
Experimental: (§1) We developed an ELISA assay to detect and quantify fusion proteins comprising IL-2 and IL-2Rα moieties. Wells of a 96-well plate are coated overnight with 100 uL of a rat anti-mouse IL-2 monoclonal antibody (JES6-1A12; ThermoFisher) at […] in PBS. After washing, wells are blocked with TBS/0.05% Tween 20/1% BSA, then fusion proteins and/or unknown biological samples are added for 1 hr at room temperature. After washing, an anti-mouse IL-2Rα biotin-labelled detection antibody (BAF2438, R&D systems) is added and binding is detected using Ultra Strepavidin HRP (ThermoFisher). The ELISA plate was developed by adding the chromogenic tetramethylbenzidine substrate (Ultra TMB, ThermoFisher). The reaction is stopped by addition of 0.5M H2SO4 and the absorbance is read at 450-650 nm.
We developed a second ELISA assay to detect and quantify mouse IL-2 and/or fusion proteins comprising an IL-2 moiety. Wells of a 96-well plate are coated overnight with 100 uL of a rat anti-mouse IL-2 monoclonal antibody (JES6-1A12; ThermoFisher) at […] in PBS. After washing, wells are blocked with TBS/0.05% Tween 20/1% BSA, then fusion proteins and/or unknown biological samples are added for 1 hr at room temperature. After washing, an anti-mouse IL-2 biotin-labelled detection antibody (JES6-5H4, ThermoFisher) is added and binding is detected using Ultra Strepavidin HRP (ThermoFisher). The ELISA plate was developed by adding the chromogenic tetramethylbenzidine substrate (Ultra TMB, ThermoFisher). The reaction is stopped by addition of 0.5M H2SO4 and the absorbance is read at 450-650 nm. This assay is able to simultaneously detect both free mouse IL-2 as well as mouse IL-2 in the context of pro-drug fusion proteins.
We quantified levels of full-length IL2-IL2Ra fusion proteins and IL-2 in tumor samples collected during pre-clinical efficacy studies comparing Construct B and retention linker IL-2 fusion drugs (see example 17).
Tumors (n=3 per group) were collected 24 h after the last dose injection, flash frozen and stored at −80C until further processing. Tumor lysates were generated using tissue extraction reagent (ThermoFisher) supplemented with protease and phosphatase inhibitors and standard techniques and protein concentrations were determined using the BCA assay (Pierce).
Lysates were tested with in-house ELISAs to measure full-length IL-2 fusion proteins (IL-2 capture/IL-2Rα detection) and IL-2 fusion proteins+free IL-2 (IL-2 capture/IL-2 detection). Free IL-2 levels in tumor were calculated by subtracting drug levels from the drug+IL-2 data set. Results were normalized to 1 mg of tumor lysate and mean values are shown in FIG. 15C-H. Levels of Construct CC (20 mg/kg dose) in tumor are roughly 3-fold higher compared to Construct B levels, despite Construct B being dosed at 40 mg/kg (FIG. C). […] Likewise, IL-2 levels in Construct CC, Construct GG and Construct II treated tumors are elevated compared to Construct B treated tumors (FIG. 15E/H). This implies that next generation retention linker technology is able to retain in TME both full-length drug and released IL-2 post-cleavage.

[2] = Full-length drug levels in serum by ELISA; assay type: in vivo, mice; details: 24 hrs after dosing
Experimental: as §1
Additional serum samples collected at Day 17 (Construct B 20 mg/kg) and Day 21 (Construct Y 20 mg/kg), 4 days and 8 days respectively after the last IV injection, were assayed for full-length IL-2 fusion drug.

collagen = assay: IL-2 fusion protein collagen-agarose pulldown (immunoblot quantitation); assay type: binding
Experimental: To test binding to collagen, a pulldown assay using agarose cross-linked to collagen (Sigma) was performed. IL-2 fusion proteins were incubated with collagen-agarose or control agarose beads for 18-22 h at 4C with gentle rotation in 1% BSA/PBS-0.05% Tween 20. After washing, proteins bound to the beads were eluted by resuspending beads in SDS sample buffer (Life Technologies). Bound proteins were then separated by SDS-PAGE on 4-12% BisTris gradient gel followed by immunoblotting with goat anti-mouse IL-2 polyclonal antibody (AF-402-NA; R&D systems). Donkey Anti-goat RP-conjugated antibody was used for detection (Jackson Immuno Research, West Grove, PA) and the blot was developed using the SuperSignal West Femto Maximum sensitivity detection reagent (ThermoFisher) following the manufacturer's recommendations.

B16F10 melanoma = assay: In vivo efficacy of retention linker IL-2 drugs in B16F10 syngeneic model (Example 17); design: species or system mice
Experimental: In a first efficacy study, C57BL/6 mice were subcutaneously inoculated with B16F10 melanoma cells and when the average tumor volume reached on average 70-90 mm^3, animals were randomized into 5 groups based on tumor volumes (n=6 mice per treatment group). Mice were dosed intravenously every 3 days (Q3D) for a total of 5 doses according to following design:
In a second efficacy study in the same model, C57BL/6 mice were subcutaneously inoculated with B16F10 melanoma cells and when the average tumor volume reached on average 70-90 mm^3, animals were randomized into 5 groups based on tumor volumes (n=6 mice per treatment group). Mice were dosed intravenously every 3 days (Q3D) for a total of 5 doses according to following design:
On Day 20, mice received an additional dose of drug, animals were sacrificed 24 hrs later and tissues and blood (processed to serum) were collected and stored at −80C for further testing. […] This is most likely due to the higher levels of both circulating drugs in serum and resident drug in TME, which can exert prolonged anti-tumor activity even after an extended dosing holiday.

[3] = pH-sensitive sequences derived from thrombospondin
[4] = cleaved with MMP9, read-out: +MMP EC50

## 654 (KRFKQDGGWSHWSPWSS) [Construct 654]
fibronectin; [3]
  affinity (Binds to Fibronectin): derived from thrombospondin (low affinity)

## 655 (KRFKQDGGWSHWSP) [Construct 655]
fibronectin; [3]
  affinity (Binds to Fibronectin): derived from thrombospondin (medium affinity)

## 656 (GGWSHWSPWSS) [Construct 656]
fibronectin; [3]
  affinity (Binds to Fibronectin): derived from thrombospondin (medium affinity)

## 680 (QFGGHNSVDFEEDT) [Construct 680]
fibronectin; FAB D3 fragments
  affinity (Binds to Fibronectin): non-binding control

B1: Construct CC: SEQ ID NO 813: m IL2-2x(GHHPH)-MMPcs1-2x(G4S)-mIL2Ra(1-215)-mu IgG1 Fc (protein)
chain: APTSSSTSSSTAEAQQQQQQQQQQQQHLEQLLMDLQELLSRMENYRNLKLPRMLTFKFYLPKQATELKDLQCLEDELGPLRHVLDLTQSKSFQLEDAENFISNIRVTVVKLKGSDNTFECQFDDESATVVDFLRRWIAFCQSIISTSPQGHHPHGHHPHGPLGVRGGGGGSGGGGSELCLYDPPEVPNATFKALSYKNGTILNCECKRGFRRLKELVYMRCLGNSWSSNCQCTSNSHDKSRKQVTAQLEHQKEQQTTTDMQKPTQSMHQENLTGHCREPPPWKHEDSKRIYHFVEGQSVHYECIPGYKALQRGPAISICKMKCGKTGWTQPQLTCVDEREHHRFLASEESQGSRNSSPESETSCPITTTDFPQPTETTAMTETFVLTMEYKGCKPCICTVPEVSSVFIFPPKPKDVLTITLTPKVTCVVVDISKDDPEVQFSWFVDDVEVHTAQTQPREEQFNSTFRSVSELPIMHQDWLNGKEFKCRVNSAAFPAPIEKTISKTKGRPKAPQVYTIPPPKEQMAKDKVSLTCMITDFFPEDITVEWQWNGQPAENYKNTQPIMDTDGSYFVYSKLNVQKSNWEAGNTFTCSVLHEGLHNHHTEKSLSHSPGK
HEK-Blue™ IL-2 cells; [4]
  EC50: 13 pM
HEK-Blue™ IL-2 cells; uncleaved, read-out: −MMP EC50
  EC50: 660 pM
heparin; acidic pH
  EC50: 10000 pM
heparin; pH 6 vs pH 7.5, plate assay
  heparin binding (qualitative): bind heparin in dose-dependent manner and with higher affinity than Construct B; also recorded: preferentially binds heparin at acidic pH
[1]; Construct CC 20 mg/kg, tumors 24 h after last dose
  drug levels in tumor relative to Construct B (40 mg/kg): roughly 3 fold
[1]
  IL-2 levels in treated tumors compared to Construct B treated tumors: elevated
[2]; Construct CC 20 mg/kg
  circulating drug levels compared with Construct B (40 mg/kg): roughly similar

B2: Construct II: SEQ ID NO 819: m IL2-LHERHLNNN-MMPcs1-2x(G4S)-mIL2Ra(1-215)-mu IgG1 Fc (protein)
chain: B1 chain with G150S, H151L, P153E, H154R, G155H, H156L, H157N, P158N, H159N
HEK-Blue™ IL-2 cells; [4]
  EC50: 9 pM
HEK-Blue™ IL-2 cells; uncleaved, read-out: −MMP EC50
  EC50: 489 pM
collagen; blot quantitation, collagen-agarose bound fraction
  Bound: 2277
collagen; bound fraction relative to Construct B (fold)
  Normalized: 1.4
collagen; fraction bound to collagen-agarose
  Bound (% input): 0.4%
collagen; pulldown 18-22 h at 4C
  binding to collagen-agarose beads vs control agarose beads: specifically bound by collagen-agarose beads
[1]
  IL-2 levels in treated tumors compared to Construct B treated tumors: elevated
[2]; 10 mg/kg cohort
  drug levels in serum relative to Construct B: ~3 fold
B16F10 melanoma; 10 mg/kg IV Q3D, 5 doses
  TGI (%) D 15: 57% and 57.68%
B16F10 melanoma; 10 mg/kg, 7 days following the fifth dose
  TGI (%) D 20: 68.52%

From patent US20240043489A1, “Cytokine Prodrugs Comprising a Cleavable Linker” (Trutino Biosciences Inc., priority 2020, published 2024)
